This data set can be described thus: label from the status in PepcDB records.
For “MKKMAAAESMEAEICINREIPPGLFPAVKGTDDLMAEGDIMSLLESIKKTEGGSGEVSVEDKMDEIFAKLEKSQVLLIQGDTGCGKTTKIPKYLLRKYGKIVCSQPRRIAAVSIAKKVAVDMKGKIGEDVGYSIRFDDMSSGRTRLKYVTDGVLLREIKNDKHLKKYDVVIIDEAHERSVNIDILLGYLKSILSERKDLRVVIMSATLNSEKFASFFRCQTVEIRHRMFPLEIFFLKKSDVADYVDEAMKTVVQIHRGEESGDILVFLTGRDEINSGREILMEVLGNDAEVCCIYSTLSPEEQEAVFRKTKKRKIVLATNIAETSITIEGVRYVVDSGRAKQMRYSASFGMDILEVVWISKAQAKQRAGRAGRTQAGKVFRMYSKEEYQKMDDNTTPEIFCCNLGKIVLELKSIGVDDIVNFNLIDKPDASNVKKALEMLYYLRAIGGDGKITSIGVKASTIPLDPELAVSLIVSSELGCLEDVSIIAAMLSVGNVWLDVPRYSQSYKAFLGARAAHFDKRGDHFLLLKIYRRWEKTGFKISHLKRWFLNVKTMLQTVKIKKQLCSMFRSPCKSDESGILPSLCAGYFMNVAKLVGESYVSIFNDTPCFIHYTSCMSRQNAKYILYHTLCRTGKEYARYCVGVTLEDLLKGANHMFAKVRKTEK”, the protein production entry is “failed”. The same measure for “MVFTLADSVSQVALGPSWLDPMELLSGSGPFGSFILPAMLAIVFIESGLLFPLLPGDSLLFTGGLLANQADPFAPLWLVLILCPIAAILGDQVGYWIGHKFHPRLVNRPDGRIFKQEYLKQTEDFFEKHGPVTIILCRFVPIVRTYAPLVAGMAGMRYRTFIIYNMIGGILWGSGVVALGAALGQFDFVRNNIDLIFLLIVFISVVPGLVGMARKLADGHKQANTEPQENPAVQTAPVKTQEAQEAPQN”: “failed”.

Consider “MKILKISLTVVVEVALIYLFSLLVGWSFMEAFFLGSLAIFGAIWLIALNINQNNNIDHTIYKTGTVKPFQMTWGPYTTGATSLTAFSFIITTIYYLPYFL”, for which the protein production result is listed as “failed”.

For “MVKDSEFLTLVFQSILDEIDVGLHVVDEHGNTIVYNNKMMQIEDMEKHDVLNKNLMDVFMFSKQQDSTLVQALQEGKTIKNVKQSYFNNKGQEITTINHTYPIVQDGKIRGAVEIAKDVTKLERLIRENMNKKGSTTYTFDSILGTSPAIQDVIENAKRATRTSSSVLLAGETGTGKELFAQSIHNGSDRSGGPFISQNCAALPDSLVESILFGTKKGAFTGAVDQPGLFEQAHGGTLLLDEINSLNLSLQAKLLRALQERKIRRIGSTKDTPIDVRIIATMNEDPIDAIAGERMRKDLYYRLSVVTLIIPPLRERKEDILLLASEFIQKNNHLFQMNVEHISDDVKQFFLSYDWPGNIRELEHMIEGAMNFMTDEQTITASHLPYQYRMKIKPADIPEPETPRHQPAADLKEKMESFEKYVIENVLRKHGHNISKAAQELGISRQSLQYRLKKFSHSSNE”, the protein production entry was “failed”. Next, “MRSFSKFAQIVFFGLLIVSAIFVVSCGGSGNAVLNKDKPLVFFNRQPSDPTTGEIDMTSMNWNDKTYYVGFDAAGGGAVQGKLITDFLVSAETSLDRNGDGIIGYVLCIGDVGHNDSKARTEGIRKALGTWAGSTDPGKTKQGSITIAGKTFDVVELEGKAMTGTDGSTWNANAATEAMGGWATKFADQIDMVVSNNDGMAMGCLQASNYPAGVPIFGYDANADAIEAVGKGLLTGTVSQNVDAQATATLQVLRNLLDGLTGTDVYTKGITAEDSYGNKISAPVQYWADVKAVMAANSGVTKANYENYLGGTRDAGIKQTNAPKKKVLLTIYNSGDNFLSSSYLPALKYYAPLLNIELTIVQGDGQNESSCLDKFTNLNNFDAFAVNMVKTNSGSNYTDKLKY”: “failed”; “SIVIIFNPNSTGDAPELAQQLHGKLKELLTYQPEITLQPTEHAGHAVDLAREAASKGGDVLVVSVSGDGGYNEVVNGVMQADNPRAVAAVLAAGNANDHSRIIGTKPLEEAIAEGRVHNIDLLRIHTG”: “failed”; “MTTTQPEAKDRISSLPVPDATQVPEGVRKLWAKAEANIGFVPNVFRAQAVNGEQFLAWWNYFNLLLNKEGYLTNAERELVAVVVSGVNRCLYCAVSHGAALREFLGDPQKADAVAVNWRHADLTEREQALAAYAEKLTRHPAEVTAADLEPLRAVGLDDHQIMELVQVIGMFNLTNRVSSALGFVPNPEYYRQAR”: “not failed”. In the case of “MVGIRKRKDFFEEFGSELFDNLEEMIEALLEDMGESVPFVYGFSIIRRPGEDPELREFGNISENSEDEENPFPSEIRDPLIDIFESEELIHVLAEIPEIEKEDLLLHATAQNLEIRILGASEYSQDIELPARVDPKSAKASYKNGVLEVTFKRCTEEMPVEIEIN”, the protein production result is listed as “failed”. As to “MASSKQADPQTDARPLPQDFETALAELESLVSAMENGTLPLEQSLSAYRRGVELARVCQDRLAQAEQQVKVLEGDLLRPLDPAALDDE”, the protein production result is reported as “not failed”. The same measure for “SERRLGVRAWVKENRGSFQPPVCNKLMHQEQLKVMFIGGPNTRKDYHIEEGEEVFYQLEGDMVLRVLEQGKHRDVVIRQGEIFLLPARVPHSPQRFANTVGLVVERRRLETELDGLRYYVGDTMDVLFEKWFYCKDLGTQLAPIIQEFFSSEQYRTGKPIPDQLLKEPPFPLSTRSIMEPMSLDAWLDSHHRELQAGTPLSLFGDTYETQVIAYGQGSSEGLRQNVDVWLWQLEGSSVVTMGGRRLSLAPDDSLLVLAGTSYAWERTQGSVALSVTQDPACKKPLG”: “not failed”. Consider “MRLVEIGRFGAPYALKGGLRFRGEPVVLHLERVYVEGHGWRAIEDLYRVGEELVVHLAGVTDRTLAEALVGLRVYAEVADLPPLEEGRYYYFALIGLPVYVEGRQVGEVVDILDAGAQDVLIIRGVGERLRDRAERLVPLQAPYVRVEEGGIHVDPIPGLFDLEHHHHHH”, for which the protein production result is “failed”. On to “MSPFESMEKFPHLLVLDFDGVLCDGLQEYFQTSCQVCRQIWPDLPREKLDRQRDNFYFLRPVIETGWEMPLLLKALATGVEPAAIEAAWPAVAQTLQRQEQIGKSQLAPVLDQVRDNYIHNDLAYWLGLHHFYPGVIGQLNHWLQSPYPQWLYVVTTKEGRFVQQLLKNQKVDFPLGQIIGKEIKQPKFKTLEQLRVKHQCDGDRLWFVEDMLT”, for which the protein production entry is “failed”. Consider “MDRRHEIYEWFRINRFKVDMTATCLLILLFGPVYLVADRPWLFLLSCSLLLPLAWRRTRPAVAAGVVILVCLVQWAVAAEPVAGQIAVPLVIYATAAYGPAWASRTVLLAGLLGGVMLTTRLFSTTAESGILGLTIGALYTVLIWMLVLVSWTLGDLTRVRRLQLQALEDRTRRLEVEQMQERKLAAADERSHIAREMHDIVAHSLSVIITQADGARYAAAAKPELATEALATIAATGRDSLGEMRRLLGVLRSDDDSPTRPQPRLSDLDELLLGFRAATLQVTFEQSGAPRRALPAGAELTAYRIIQEALTNVMKHAGPRATAAVTLAWQARGLQVDVVDDGRGAAADPPTAGGGNGLRGMGERVSLYDGSLTAGPEQGGGFRVSAFIPYSEA”, for which the protein production result was “failed”. Turning to “MKICHRYIAWQVLTGMVIATAILLPLFSFFDLLDQLDDVGKGTYTTWDAFLYTVMLMPRRFIQIAPFIALLGTVGALGALAVNLELVAMRVAGLSPLMIGLAPVGIGGLLIASTIALEYFVAPQFQQQATILRAVALEQGAELGKGLGIWTRNERNILRIGEMLHKGRATDIEVIHFDGEGSMTAHVHAWYADIFDESLWKLHDVTIRTFSPDRITSRKAHILQWHSFLGPDDIATLTKSPESLTPIELVKHAEFLRATGQKADAYVMALWRKVGGAIMTIAMILVAIPFIFGSVREGLGGKLILAALMGISIYLFDQIIANIGLVFQLNPIVVSVVPGMVLIAVAAHWLLRRTF”, the protein production result is given as “failed”. Next, “MIGFLILLFIFVAGFFIMQMLIYRFAKKNIHKYTKIKWFHMWLHMNMKKGPRLDFFDFVVTVLVCIVWKIWLLPFI”: “failed”. The same measure for “MLVGSQLIEIVIDSLRYENLKEILDEMFRDEVQKLKYFLEDVKEEDEELYNKIVDALKLFKENYEIEDIKIPKKIRVFLVKNNILFLNPQKGSLKPQSYLVWNAIKMLL”: “failed”. With “MEIAKGVEMLQLEFQEFIIHPILLWNDEMAVLIDTGFPGQFEDIQVEMKRVGVSVDKLKVVILTHQDIDHIGSLPDLLENGVSDIKVYAHELDKRYIEGDLPLLKDVHVENPPKGKVSDTVIDGQELPYCGGILILHTPGHTPGHISLYLKQSKTLIAGDSMYSVNGKLGGIHAPTTLNIMEAQQSLKKYLNLDIESVVCYHGGLSKGNIKIQLQNL”, the protein production entry was “failed”. For the sequence “MDARFLYPLESCKIIHLLRHGQALHNVEAEKDRNALLSPHLFDAPLTDHGHQQVENLRERVVSSGLLKRVELVVTSPLFRTMQTAVGVFGNEYKQSSMTSSPPILALEVARDRNGVRPPDMRRNVSEYQTLFPTIDFSQIESEEDNLWRPDVRESEEEILARGLEFMKWLWKRPEKEVAVVSHGIVLQHMLYVFANDCDLSIRHELCKRFANCEIRTVVIVDKGMASSTEN”, the protein production entry was “failed”. For the sequence “MKRHYIFASHGSFANGLLNSVELILGKQPDIHTLCAYVEEEVDLTQQVEALVARFPAQDELIVITDIFAGSVNNEFVRFLSRPHFHLLSGLNLPLIIDLLISAAEDNTEKLITEALTNAKESIQYCNQTIASAMTMDKDF”, the protein production entry was “not failed”. Turning to “MSRVKNVVELLETKGVDALYLTKKTNVNYISGFPDEEAYAVICKDGNFLVTDSRYMELAEKVCKDFEIINWHNFDRSVAKAVKSVCDKVGIKKLGFERTNIVFDKYEELKNLIEKDNGELIPTENIVETLRYVKDKDEIKNTRKACEIADKALEELIPHIKAGVSEIELATKLEYFMKMNGAQNIGFETILISGAKTSLLHGKPSDKIIEKGDFVLIDYGAMYNGYISDTTRTFIVGGASEKQLEIYNLVKEAQNVGVENMKAGVHATIPDAEIRKVVKKYEDYYYQGIGHGVGRDVHEEPFIGNYGDKIIEEGCIITMEPGIYFPGWGGVRIEDTVLITKNGPERLTKFPKDLMILDK”, the protein production result is listed as “failed”. As for “NQLLTQQANEDGLTKLFNRRYIDQKLDSMVAWHGRHHMPMAMILLDVDFFKPFNDNYGHIEGDRCLQAIANQLKATFCRSGEYVGRYGGEEFVVLLSSTDAQTAEREAERIQEAMYFLDYQHEFSSVANRVTVSQGVFVFQPTGKENQADLYATADRALYTSKSLGRNTYTMVNAS”, the protein production result is given as “not failed”. In the case of “MHTEQALHTRIADIVESIILKKVTPDTALISSGLVDSLAAVDITLAVESEYGCSIPAPEIAEHLQSVRTLAGYVAANSQ”, the protein production entry is recorded as “failed”. On to “MSLDCRERIEKDLELLEKNLMEMKSIKLSDDEEAVVERALNYRDDSVYYLEKGDHITSFGCITYAHGLLDSLRMLHRIIEGHHHHHH”, for which the protein production result was “not failed”. Consider “MEYSFYDFLKLIGSLGLFLYGMKIMSEGLQKVAGDRLRGILTAMTTNRVTGVLTGVLITALIQSSSATTVMVVSFVNAGLLTLAESISVIMGANIGTTVTAWIISIFGFKVDMAAFALPLLAIALPLIFSGKSNRKSIGEFIFGFSFLFMGLSYLKANAPDLNANPEMLAFVQNYTDMGFFSVLLFLFIGTILTMIVQASAATMAITLIMCANGWISLELGAALVLGENIGTTITANLAALTANSQAKRAALAHFVFNVFGVIWVLIIFHPFMVFVNWVVDTFFHPGSAEVAISYKLSAFHSIFNICNVCLLIWGVKLIERTVCAIIRPKEEDEEPRLRFITGGMLSTAELSILQARKEIHLFSERIHRMFGMVQDLLHTEKDDDFNKLFSRIEKYENISDNMELEIANYLNQVSEGRLSSESKLQIRAMLREVTEIESIGDSCYNLARTISRKRQTNQDFTEKQYEHIHFMMKLTNDALSQMIVVVEKPEHQSIDVNKSFNIENEINNYRNQLKNQNILDVNNKEYDYQMGVYYMDIIAECEKLGDYVVNVVEASSDVKEKKAS”, for which the protein production entry is given as “failed”.

The values above are taken from a protein production outcome set (Wang et al. 2014).
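Note: failed if final PepcDB status was selected cloned or expressed and not failed if soluble or beyond.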
